Measured values reported in patent US20220204603A1 (PHARMABCINE, published 2022).

T1: His-tagged human Ang1 (R&D systems, 923-AN/CF) (human, UniProt Q15389 20-498, limits assumed)
T1 construct: Bought protein; also called hAng1-his; not shown: His tag
T1 sequence (looked up): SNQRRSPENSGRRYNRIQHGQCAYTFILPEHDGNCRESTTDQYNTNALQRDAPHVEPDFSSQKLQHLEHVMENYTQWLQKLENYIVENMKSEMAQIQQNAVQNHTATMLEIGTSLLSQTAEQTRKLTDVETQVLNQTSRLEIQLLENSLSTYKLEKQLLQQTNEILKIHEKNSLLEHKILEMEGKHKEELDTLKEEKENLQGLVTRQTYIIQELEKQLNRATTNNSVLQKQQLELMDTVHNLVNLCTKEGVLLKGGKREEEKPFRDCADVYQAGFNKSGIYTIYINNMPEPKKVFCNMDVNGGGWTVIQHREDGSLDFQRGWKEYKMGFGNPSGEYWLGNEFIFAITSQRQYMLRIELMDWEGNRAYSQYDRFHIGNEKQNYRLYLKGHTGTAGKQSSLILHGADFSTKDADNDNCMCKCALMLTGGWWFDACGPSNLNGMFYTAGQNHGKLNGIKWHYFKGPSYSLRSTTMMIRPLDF

T2: Ang2 immobilized on a biosensor (Octet off-rate screening) (Homo sapiens (Human), UniProt O15123 19-496)
T2 construct: also called Ang2 antigen; not shown: It is a His tag if hAng2-his (R&D 623-AN/CF) was used, or an Fc if hAng2-Fc (PharmAbcine) was used
T2 sequence: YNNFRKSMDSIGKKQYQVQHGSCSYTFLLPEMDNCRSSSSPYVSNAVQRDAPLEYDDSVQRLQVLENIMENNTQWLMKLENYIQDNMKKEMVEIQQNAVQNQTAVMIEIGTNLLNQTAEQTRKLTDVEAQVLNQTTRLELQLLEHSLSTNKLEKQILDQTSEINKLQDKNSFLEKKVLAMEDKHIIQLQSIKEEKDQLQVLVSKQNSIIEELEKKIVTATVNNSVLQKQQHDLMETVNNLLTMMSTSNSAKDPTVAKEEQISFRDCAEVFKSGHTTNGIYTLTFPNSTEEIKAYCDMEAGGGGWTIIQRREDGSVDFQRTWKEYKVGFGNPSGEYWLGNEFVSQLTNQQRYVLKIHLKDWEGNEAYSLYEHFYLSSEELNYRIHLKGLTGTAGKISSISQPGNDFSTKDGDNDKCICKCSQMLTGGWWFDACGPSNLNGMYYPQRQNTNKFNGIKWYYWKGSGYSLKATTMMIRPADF


Columns and labels:
[1] = biological target: Ang2 immobilized on a biosensor (Octet off-rate screening) (Homo sapiens (Human)) (UniProt O15123); test: dissociation rate screening of optimized clones (method as in Example 3, Octet; not restated)
[2] = biological target: T1, His-tagged human Ang1 (R&D systems, …); test: phage ELISA, antigen coated at 1 µg/ml, anti-M13-HRP
[3] = biological target: T2, Ang2 immobilized on a biosensor (Octet …); test: dissociation rate screening of optimized clones (method as in Example 3, Octet; not restated)

Row | Binder | koff [3] | other results
1 | No. O4 optimized clone (screening of scFv phage library of No. 8 CDR3 variants) (scFv, part only; not given: scFv linker, part only) scFv, part: QVQLVESGGGLVKPGGSLRLSCAASGFTFSSYSMNWVRQAPGKGLEWVSSISASDGATYYADSVRGRFTISRDNSRSTLYLQMNSLRAEDTAVYYCAKTLAGYSGPMGGMDVWGQGTTVTVSSDIQMTQSPSSLSASVGDRVTITCRASRDISNYLAWYQQKPGKAPKSLIYGASNLQSGVSSQFSGSGSGTDFTLTINSLQPEDSATYYCQQYYSYPLTFGGGTKVDIKR | – | koff [1]: 9.01e-05 s⁻¹
2 | No. 3 monoclonal scFv phage (scFv) QMQLVQSGGGLVQPGRSLKLSCAASGFSFDDYAMHWVRQAPGKGLEWVATIKDDGSQTYYVDSVKGRFTISRDNAKSSLFLQMNSLRAEDTAVYYCTTEGLMNGLHFDMWGQGTMVTVSSLVLTQPPSVSGAPGQGVTISCTGSSSNIGAGYDVHWYQQFPGTAPKLLISGNNNRPSGLPDRFSGSKSGTSASLAITGLQAEDEADYYCQSYDSRLGVVFGGGTKLTVLG | – | OD [2]: 0.025 OD
3 | No. O10 optimized clone (screening of scFv phage library of No. 8 CDR3 variants) (scFv, V domains shown) VH: QVQLVESGGGLVKPGGSLRLSCAASGFTFSSYSMNWVRQAPGKGLEWVSSISASDGATYYADSVRGRFTISRDNSRSTLYLQMNSLRAEDTAVYYCAKILVGYSGPMGGMDVWGQGTTVTVSS VL: DIQMTQSPSSLSASVGDRVTITCRASRDISNYLAWYQQKPGKAPKSLIYGASNLQSGVSSQFSGSGSGTDFTLTINSLQPEDSATYYCQQYYSYPLTFGGGTKVDIKR | 3.92e-05 s⁻¹ | –
4 | No. O12 optimized clone (screening of scFv phage library of No. 8 CDR3 variants) (scFv, V domains shown) VH: QVQLVESGGGLVKPGGSLRLSCAASGFTFSSYSMNWVRQAPGKGLEWVSSISASDGATYYADSVRGRFTISRDNSRSTLYLQMNSLRAEDTAVYYCAKSLASYSGPMGGMDVWGQGTTVTVSS VL: DIQMTQSPSSLSASVGDRVTITCRASRDISNYLAWYQQKPGKAPKSLIYGASNLQSGVSSQFSGSGSGTDFTLTINSLQPEDSATYYCQQYYSYPLTFGGGTKVDIKR | 1.7e-05 s⁻¹ | –
